Assay results published in patent publication US12065471B2, “B*44 restricted peptides for use in immunotherapy against cancers and related methods” (Immatics Biotechnologies GmbH, priority 2018, dated 2024).

Target: HLA-B*44:05 (Homo sapiens, UniProt P01889, A223V/A65T/A93T/A95T/D201E/D98Y/E176V/E187L/E204Q/E69K/G107R/H137Y/K202T/L105A/L119I/N104T/N87E/Q56L/Q94N/R106L/R155S/R180D/S101N/S121R/S35A/S48T/T118I/V36M/W191S/Y91S)
Test: MHC binding assay (UV-ligand exchange, β2m ELISA, peptide exchange yield)
Conditions: binding to HLA-B*44:05
Text: Candidate peptides for T cell-based therapies according to the present invention were further tested for their MHC binding capacity (affinity). The individual peptide-MHC complexes were produced by UV-ligand exchange, where a UV-sensitive peptide is cleaved upon UV-irradiation and exchanged with the peptide of interest as analyzed. Only peptide candidates that can effectively bind and stabilize the peptide-receptive MHC molecules prevent dissociation of the MHC complexes. To determine the yield of the exchange reaction, an ELISA was performed based on the detection of the light chain (β2m) of stabilized MHC complexes. The assay was performed as generally described in Rodenko et al. (Rodenko et al., 2006)
96 well MAXISorp plates (NUNC) were coated over night with 2 μg/ml streptavidin in PBS at room temperature, washed 4× and blocked for 1 h at 37° C. in 2% BSA containing blocking buffer. Refolded HLA-A*02:01/MLA-001 monomers served as standards, covering the range of 15-500 ng/ml. Peptide-MHC monomers of the UV-exchange reaction were diluted 100-fold in blocking buffer. Samples were incubated for 1h at 37° C., washed four times, incubated with 2 μg/ml HRP conjugated anti-β2m for 1h at 37° C., washed again and detected with TMB solution that is stopped with […]. Absorption was measured at 450 nm.

Substance	Peptide exchange (MHC class I binding score, peptide exchange yield)
346 (EEIENLQAQF; listed as Homo sapiens) [compound 346]	++ (>20% = ++)
373 (REDPIVYEI; listed as Homo sapiens) [compound 373]	++ (>20% = ++)
426 (AESLFREAL; listed as Homo sapiens) [compound 426]	+++ (>50 = +++)
3 (DEIFTNDRRW; listed as Homo sapiens) [compound 3]	++ (>20% = ++)
166 (EEQDFINNRY; listed as Homo sapiens) [compound 166]	++++ (>75% = ++++)
282 (KEFGIGDLVW; listed as Homo sapiens) [compound 282]	++++ (>75% = ++++)
404 (AEREQVIKL; listed as Homo sapiens) [compound 404]	++++ (>75% = ++++)
391 (TESIGAQIY; listed as Homo sapiens) [compound 391]	+++ (>50 = +++)
140 (TEHSGIYSC; listed as Homo sapiens) [compound 140]	++ (>20% = ++)
145 (EELRMLSF; listed as Homo sapiens) [compound 145]	++ (>20% = ++)
2 (EEFLRPRSL; listed as Homo sapiens) [compound 2]	++ (>20% = ++)
366 (EECGKAFKKF; listed as Homo sapiens) [compound 366]	+++ (>50 = +++)
380 (EECGKAFRVF; listed as Homo sapiens) [compound 380]	+++ (>50 = +++)
112 (AEIEADRSYQH; listed as Homo sapiens) [compound 112]	+++ (>50 = +++)
329 (SEPQITVNF; listed as Homo sapiens) [compound 329]	+++ (>50 = +++)
339 (NEVKEIKGY; listed as Homo sapiens) [compound 339]	+++ (>50 = +++)
261 (QEWDPQKTEKY; listed as Homo sapiens) [compound 261]	+++ (>50 = +++)
65 (SESMVESKF; listed as Homo sapiens) [compound 65]	++ (>20% = ++)
64 (EEYQDSFERY; listed as Homo sapiens) [compound 64]	++ (>20% = ++)
266 (EEEDRDGHTW; listed as Homo sapiens) [compound 266]	+++ (>50 = +++)
341 (HELESENKKW; listed as Homo sapiens) [compound 341]	+++ (>50 = +++)

Substance	Peptide exchange (MHC class I binding score, peptide exchange yield)
375 (HEATFGEKRF; listed as Homo sapiens) [compound 375]	+++ (>50 = +++)
256 (RLLPGKVVW; listed as Homo sapiens) [compound 256]	++ (>20% = ++)
136 (EEMPEEIHL; listed as Homo sapiens) [compound 136]	+++ (>50 = +++)
232 (YEIRAEAL; listed as Homo sapiens) [compound 232]	++ (>20% = ++)
447 (KEFGLDSVEL; listed as Homo sapiens) [compound 447]	+++ (>50 = +++)
451 (REYEDGPLSL; listed as Homo sapiens) [compound 451]	+++ (>50 = +++)
27 (GETCVRITY; listed as Homo sapiens) [compound 27]	+++ (>50 = +++)
415 (EEAGFPLAY; listed as Homo sapiens) [compound 415]	+++ (>50 = +++)
185 (TEANVQALF; listed as Homo sapiens) [compound 185]	++++ (>75% = ++++)
299 (AEVQIARKL; listed as Homo sapiens) [compound 299]	+++ (>50 = +++)
220 (EEEVFSGMKL; listed as Homo sapiens) [compound 220]	++++ (>75% = ++++)
259 (IEVSSPITLQAL; listed as Homo sapiens) [compound 259]	++ (>20% = ++)
427 (AEMLGSVVGNW; listed as Homo sapiens) [compound 427]	+++ (>50 = +++)
277 (VEFPATRSL; listed as Homo sapiens) [compound 277]	+++ (>50 = +++)
50 (SEYVHSSFSGF; listed as Homo sapiens) [compound 50]	+++ (>50 = +++)
333 (SEGTLPYSY; listed as Homo sapiens) [compound 333]	++ (>20% = ++)
274 (DEIDKLTGY; listed as Homo sapiens) [compound 274]	++ (>20% = ++)
207 (LEGGGRGGEF; listed as Homo sapiens) [compound 207]	++ (>20% = ++)
454 (SESSSAFQF; listed as Homo sapiens) [compound 454]	+++ (>50 = +++)
336 (QEVNISLHY; listed as Homo sapiens) [compound 336]	++++ (>75% = ++++)
446 (AENIKKFLY; listed as Homo sapiens) [compound 446]	+++ (>50 = +++)

Substance	Peptide exchange (MHC class I binding score, peptide exchange yield)
262 (YENILNAI; listed as Homo sapiens) [compound 262]	++ (>20% = ++)
177 (LEEPMPFFY; listed as Homo sapiens) [compound 177]	+ (>10% = +)
334 (LEWQNSSSM; listed as Homo sapiens) [compound 334]	+++ (>50 = +++)
265 (EDNLIHKF; listed as Homo sapiens) [compound 265]	++ (>20% = ++)
440 (QEVAQVASA; listed as Homo sapiens) [compound 440]	++ (>20% = ++)
382 (SELNPLALY; listed as Homo sapiens) [compound 382]	+++ (>50 = +++)
26 (EESSSPVDEY; listed as Homo sapiens) [compound 26]	++ (>20% = ++)
362 (SEVEYINKY; listed as Homo sapiens) [compound 362]	+++ (>50 = +++)
237 (QEIGQKTSV; listed as Homo sapiens) [compound 237]	+++ (>50 = +++)
406 (GETVVLKNM; listed as Homo sapiens) [compound 406]	+++ (>50 = +++)
258 (IEVSSPITL; listed as Homo sapiens) [compound 258]	++++ (>75% = ++++)
205 (MEIEGAGNFL; listed as Homo sapiens) [compound 205]	++++ (>75% = ++++)
38 (DEVRFFKGNKY; listed as Homo sapiens) [compound 38]	++ (>20% = ++)
243 (VEQINISQDW; listed as Homo sapiens) [compound 243]	++++ (>75% = ++++)
115 (QEPFTRPVL; listed as Homo sapiens) [compound 115]	+++ (>50 = +++)
331 (KELEATKQYL; listed as Homo sapiens) [compound 331]	+++ (>50 = +++)
171 (WEVVHTVF; listed as Homo sapiens) [compound 171]	++ (>20% = ++)
326 (RELLDFSSW; listed as Homo sapiens) [compound 326]	++++ (>75% = ++++)
444 (SESALQTVI; listed as Homo sapiens) [compound 444]	+++ (>50 = +++)
452 (NEVDGEYRY; listed as Homo sapiens) [compound 452]	+++ (>50 = +++)
103 (AELFLTKSF; listed as Homo sapiens) [compound 103]	++++ (>75% = ++++)
